Experimental data published in paper PMC2592702.

Target: recombinant mouse PrP, amino acids 23–231 (rmPrP_(23-231)) (mouse)
Test: ELISA

POM2 monoclonal antibody (IgG)
stoichiometry N: > 2
